Tests used:
[1] = test system: MS2 coat protein; experiment: apparent KD of MS2 coat protein, switch OFF state (with FMN for OFF switches, without FMN for ON switches); designed switch direction (-1 OFF switch, 1 ON switch): -1; higher = weaker reporter binding; details: FMN input: 0 or 200 uM; Eterna round: R93 (includes R88 designs)
Method in brief: (§1)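 In 100 mM Tris-HCl pH 7.5 with 80 mM KCl and 4 mM MgCl2, and without or with constant ligand, SNAP-549-labelled MS2 coat protein was titrated in twofold steps from 0.7 or 1.5 nM to 3 µM. Per-step times went from 0.8–1.5 h down to 10–20 min. The RNA switches were transcribed on-chip from Illumina sequencing clusters, and apparent KD is the per-design median of normalised cluster binding-curve fits.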

[2] = test system: MS2 coat protein; experiment: apparent KD of MS2 coat protein, switch ON state; designed switch direction (-1 OFF switch, 1 ON switch): -1; higher = weaker reporter binding; details: FMN input: 0 or 200 uM; Eterna round: R93 (includes R88 designs)
Method in brief: as §1

Sequence | apparent KD of MS2 coat protein [1] [nM] | apparent KD of MS2 coat protein [2] [nM]
AAGAAGUGAGGAUAUCGAAGACAGACGAAAAGUCUGUCAAGCGAGAAGGCACAUGAGGAUCACCCAUGUGGAAG [Mat - Exaclusion 4 - Eli mod - D80] | 33.4 | 31.8
AAGAAUCAAGGAUAUACAAGGAAGAAAGAAAAGAAAAGAAAACAUGAGGAUCACCCAUGUAGAAGGUGAUAGAA [EteRNA is fun!] | 846 | 327
AAGAUGUCAGGAUAUACAUAAAUAAAAAAUUAUGUUAAAACACAUGAGGAUCACCCAUGUAGAAGGGACAUCAA [AJ 7] | 15.5 | 17.2
AAGGAGUAAGGAUAUCGGAAAGGACACGAAAGUGACAAAGACGAGAAGGUACAUGAGGAUCACCCAUGUAAAAA [milkweed 23] | 14.5 | 24.9
AAGGAGUGAGGAUAUCGGAAAGGACACGAAAGUGACAAAGACGAGAAGGCACAUGAGGAUCACCCAUGUAAAAA [milkweed 22] | 34.6 | 38.7
AAGGGACAUGAGGAUCACCCAUGUCAGGAUAUGCUAUGGAAAAUAAAAAUAAAACAUAGCAGAAGGGACAAAAA [Denovo 4] | 53.1 | 38.5
AAGGGACAUGAGGAUCACCCAUGUGAGGAUAUGAUGCGAAUAAAGAAAGAAUAAAGCAUCAGAAGGCACACCAA [Mat - Exclusion 1 - Eli mod - D66] | 109 | 77.2
AAGUCCAUAGGAUAUAUAUGGAUAUACAUUUAUGUAGAACUACAUGAGGAUCACCCAUGUAGAAGGAUGGAAUA [Mat - Same state - Mayanna Mod - D141] | 14.1 | 19.5
AAGUUAUUAGGAUAUACUUGUGCGAUCCAUACGUUGAUAUUACAUGAGGAUCACCCAUGUAGAAGGAAUAAAAA [JR_Exc002_Sub414] | 45.2 | 48.2
AAGUUGACAGGAUAUACUUGGGCAACAAAUAAACUAAUAUAACAUGAGGAUCACCCAUGUAGAAGGGUCAGAAA [JR_Exc002_Sub207] | 56.4 | 46.3
AAUAGUGAAGGAUAUACAGGAGAAGUACGAUAAAAGAAAGAACAUGAGGAUCACCCAUGUAGAAGGUCAGAAGU [JR_Exc002_Sub1228] | 26.3 | 33.6
ACAAACCUAGGAUAUACAUGAGGAUCACCCAUGUACAAAGGCGUAGGCGACAAAAGAGGUAGAAGGAGGAAAGG [Disoed] | 22.9 | 21.9
ACAAGAUCAGGAUAUACAUGAGGAUCACCCAUGUGAAAGAACGAUUAACGACCAGCAAGUAGAAGGGAUCAGGA [Ruby 82] | 28.5 | 20.5
ACAGUUACAGGAUAUACAUAGGAAAAAAAAAAAAAAAUUCAACAUGAGGAUCACCCAUGUAGAAGGGUAACUGA [Ex2 Design 173: Random 2B] | 144 | 93.3
ACGAACCUAGGAUAUACAUGAGGAUCACCCAUGUACAACUAUCCAUGAAUGACACUCGGUAGAAGGAGGAUCAA [Rileenen] | 22.9 | 15
ACUUGACAUGAGGAUCACCCAUGUCAGGAUAUAGUAGGACAAAUAAAUAAAAGUUCUACUAGAAGGGAUAUGGA [Design 18: G-U+ 3] | 15.7 | 16.7
AGAAUACAUGAGGAUCACCCAUGUGAGGAUAUCAAAAGAAAAAGAAAAGAAAAGAAAAUGAGAAGGCACAAAAG [EX 1 May 14] | 51.7 | 48.3

Sequence | apparent KD of MS2 coat protein [1] [nM] | apparent KD of MS2 coat protein [2] [nM]
AGCAAACAUGAGGAUCACCCAUGUCAGGAUAUGAACGAAAUAAAUAAAAAAUAAAAGUUCAGAAGGGACGAGCA [Mat - Exclusion 1 - Eli mod - D25] | 42.9 | 32.4
AGCAAACAUGAGGAUCACCCAUGUGAGGAUAUGAACGAAAUAAAAUAAAAAUAAAAGUUCAGAAGGCACGAGCA [Mat - Exclusion 1 - Eli mod - D26] | 37.4 | 27.3
AGCAAGUUAGGAUAUGCGAAGUCAGGACACACACUGACAAAGCAGAAGGAACAUGAGGAUCACCCAUGUAAGCA [Mat - Exaclusion 4 - Eli mod - D64] | 20.8 | 29.9
AGCACGUCAGGAUAUACGAACACAAAGGGUAACAACAAGGGACAUGAGGAUCACCCAUGUAGAAGGGACUAGCA [Diamond 96] | 61.9 | 58.2
AGCAGUACAGGAUAUACAUGAGGAUCACCCAUGUGAAAAUAAAGUGGCGUACCACAAAGUAGAAGGGUACUGCA [Mat - Exclusion 3 - JL mod - D31] | 104 | 34.2
AGCUAGCGAGGAUAUGCGAACAUGUCAAAAGACGUGAAGGGACAUGAGGAUCACCCAUGUAGAAGGCGCUAGCA [JL 74% mod 4] | 29.6 | 24.7
AGCUAGCUAGGAUAUACGAACAUGUCAAAAGACGUGAAGGGACAUGAGGAUCACCCAUGUAGAAGGAGCUAGCA [JL 74% mod 6] | 121 | 28.7
AGCUAGUCAGGAUAUACAAAAAUGACAGAAGACGUAAGGGAACAUGAGGAUCACCCAUGUAGAAGGGACUAGCA [Diamond 43] | 184 | 61.5
AGCUAGUCAGGAUAUACAUAAAAAAAAAAAAAAAGUGAUAAACAUGAGGAUCACCCAUGUAGAAGGGACUAGCA [Similarities v.4.2 (34 mutated to A)] | 48.3 | 29
AGCUAGUCAGGAUAUACGAACAUGUAAAAAGACGUGAAGGGACAUGAGGAUCACCCAUGUAGAAGGGACUAGCA [74%, Web mod - With 1 less C's] | 108 | 33.9
AGCUAGUCAGGAUAUGCAUGAAUGUCAAAAGACGUAAAGGGACAUGAGGAUCACCCAUGUAGAAGGGACUAGCA [JL In the Red 4?] | 277 | 120
AGCUAGUGAGGAUAUACAAGAAUAUAAACAAAAAUGAAGGGACAUGAGGAUCACCCAUGUAGAAGGCACUAGCA [Diamond 72] | 221 | 55.2
AGCUAGUGAGGAUAUACGAACAUGUCAAAAGACUGUAAGGGACAUGAGGAUCACCCAUGUAGAAGGCACUAGCA [Diamond 55] | 294 | 55.7
AGCUGGUUAGGAUAUACAUGAGGAUCACCCAUGUUAAAAAAAAAAAAAAGAUUAAAGUGUAGAAGGGAUUAGUA [Banishment 9 - Jieux - Exclusion 3] | 34.4 | 29.3
AGGAAACAUGAGGAUCACCCAUGUUAGGAUAUGAACGAAAUAAAAUAAAAAUAAAAGUUCAGAAGGAACAAAAA [Mat - Exclusion 1 - Eli mod - D19] | 41.3 | 28.2
AGGAACCUAGGAUAUACAUGAGGAUCACCCAUGUCACGAGUCAAACACAGGUAUCCUAGUAGAAGGAGGAACAC [Inlaveor] | 42.1 | 22
AGGGAACAUGAGGAUCACCCAUGUGAGGAUAUAGAAAAGAAAAGAAAAGAAAGAAGAACUAGAAGGUACAAGAA [Merenre Nemtyemsaf I] | 30 | 26.1

— the supplement of paper PMC9170038
